Reference: article PMC4894655, “Three proliferating cell nuclear antigen homologues from Metallosphaera sedula form a head-to-tail heterotrimer” (Scientific Reports, 2016)
Where two headings read alike, the source gives them in different places.

Columns and labels:
[1] = target: SsoPCNA1:SsoPCNA2 heterodimer (Sulfolobus solfataricus) (UniProt P57766); experiment: SPR; Biacore; MsePCNA2 or SsoPCNA2 immobilised on CM5, 1 μM MsePCNA1 or SsoPCNA1 applied, then MsePCNA3 or SsoPCNA3 injected at various concentrations; plateau signal fitted to a Langmuir isotherm; 10 mM HEPES-HCl pH 7.4, 150 mM NaCl
[2] = target: T1, SsoPCNA1:MsePCNA2 complex (Sulfolobus solfataricus | …, UniProt P57766 1-249; A4YHP5 1-244); experiment: as above
T1 construct: SsoPCNA1, PCNA subunit 1 of Sulfolobus solfataricus; as m4; MsePCNA2 (Msed_1792), PCNA homologue of Metallosphaera sedula; as m2; Formed on the SPR chip: MsePCNA2 immobilised on CM5, then 1 μM SsoPCNA1 applied; also called immobilised MsePCNA2 that tethered SsoPCNA1
T1 sequence (looked up) 1: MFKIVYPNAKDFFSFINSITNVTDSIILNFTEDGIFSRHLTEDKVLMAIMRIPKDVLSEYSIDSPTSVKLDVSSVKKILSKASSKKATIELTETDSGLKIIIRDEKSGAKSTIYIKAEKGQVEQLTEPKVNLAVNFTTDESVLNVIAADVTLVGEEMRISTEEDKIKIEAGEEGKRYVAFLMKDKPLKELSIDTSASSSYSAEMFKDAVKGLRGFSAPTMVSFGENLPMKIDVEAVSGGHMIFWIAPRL
T1 sequence (looked up) 2: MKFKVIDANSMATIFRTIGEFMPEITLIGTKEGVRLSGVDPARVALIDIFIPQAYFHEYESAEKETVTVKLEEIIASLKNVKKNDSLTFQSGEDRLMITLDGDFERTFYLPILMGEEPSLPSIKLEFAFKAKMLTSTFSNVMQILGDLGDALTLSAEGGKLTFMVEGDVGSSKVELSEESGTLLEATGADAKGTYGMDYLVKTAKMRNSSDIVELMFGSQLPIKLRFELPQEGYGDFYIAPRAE

[3] = target: T2, MsePCNA1:MsePCNA2 heterodimer (Metallosphaera sedula, UniProt A4YCS6 1-247; A4YHP5 1-244); experiment: as above
T2 construct: MsePCNA1 (Msed_0051), PCNA homologue of Metallosphaera sedula; as m1; MsePCNA2 (Msed_1792), PCNA homologue of Metallosphaera sedula; as m2; In SPR formed on the chip: MsePCNA2 immobilised on CM5, then 1 μM MsePCNA1 applied; In the pull-down and SEC formed in the mixture; Tag removal is said for the pull-down only; also called immobilised MsePCNA2 with MsePCNA1; MsePCNA1 and MsePCNA2 together; …
T2 sequence (looked up) 1: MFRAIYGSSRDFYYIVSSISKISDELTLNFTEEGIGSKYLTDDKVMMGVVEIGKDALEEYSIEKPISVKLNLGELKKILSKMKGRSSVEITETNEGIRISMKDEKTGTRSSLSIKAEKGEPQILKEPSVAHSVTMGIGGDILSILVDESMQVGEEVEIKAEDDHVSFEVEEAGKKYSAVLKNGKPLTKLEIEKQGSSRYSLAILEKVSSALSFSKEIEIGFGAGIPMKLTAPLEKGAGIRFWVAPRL
T2 sequence (looked up) 2: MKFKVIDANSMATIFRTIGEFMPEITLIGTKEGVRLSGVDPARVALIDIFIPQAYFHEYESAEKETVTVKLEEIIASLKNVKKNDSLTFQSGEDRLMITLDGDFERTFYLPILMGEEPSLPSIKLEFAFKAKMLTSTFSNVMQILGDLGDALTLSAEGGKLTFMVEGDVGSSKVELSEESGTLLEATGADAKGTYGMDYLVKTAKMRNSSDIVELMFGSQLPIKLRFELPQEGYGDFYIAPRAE

[4] = target: T3, SsoPCNA1 (Sulfolobus solfataricus, UniProt P57766 1-249); experiment: SPR; Biacore; about 350 RU of MsePCNA2 or SsoPCNA2 immobilised on Sensor Chip CM5; MsePCNA1 or SsoPCNA1 injected (2.5, 5, 10, 20, 40 nM), kinetic fit; 10 mM HEPES-HCl pH 7.4, 150 mM NaCl; conditions: both partners purified
T3 construct: SsoPCNA1, PCNA subunit 1 of Sulfolobus solfataricus; also called S. solfataricus PCNA1
T3 sequence (looked up): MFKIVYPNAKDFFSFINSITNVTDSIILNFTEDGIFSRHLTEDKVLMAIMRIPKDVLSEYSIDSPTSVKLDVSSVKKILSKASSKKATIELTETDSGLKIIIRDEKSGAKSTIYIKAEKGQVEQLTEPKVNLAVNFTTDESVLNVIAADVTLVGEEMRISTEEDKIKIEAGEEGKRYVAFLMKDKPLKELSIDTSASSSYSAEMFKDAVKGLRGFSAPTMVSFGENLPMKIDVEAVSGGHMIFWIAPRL

[5] = target: T4, MsePCNA1 (Metallosphaera sedula, UniProt A4YCS6 1-247); experiment: as above; conditions: both partners purified
T4 construct: MsePCNA1 (Msed_0051), PCNA homologue of Metallosphaera sedula; 'His6-tag-removed' is said for the pull-down only; also called Msed_0051; M. sedula PCNA homologue 1
T4 sequence (looked up): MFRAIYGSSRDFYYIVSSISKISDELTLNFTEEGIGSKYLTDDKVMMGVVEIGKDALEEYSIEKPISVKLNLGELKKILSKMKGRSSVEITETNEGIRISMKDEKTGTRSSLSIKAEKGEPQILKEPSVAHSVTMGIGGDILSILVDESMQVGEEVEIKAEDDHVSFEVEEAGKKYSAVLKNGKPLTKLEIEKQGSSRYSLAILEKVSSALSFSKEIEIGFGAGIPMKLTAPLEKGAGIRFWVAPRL

[6] = target: T5, SsoPCNA2 (Sulfolobus solfataricus); experiment: SPR; 5 nM MsePCNA1
T5 chain: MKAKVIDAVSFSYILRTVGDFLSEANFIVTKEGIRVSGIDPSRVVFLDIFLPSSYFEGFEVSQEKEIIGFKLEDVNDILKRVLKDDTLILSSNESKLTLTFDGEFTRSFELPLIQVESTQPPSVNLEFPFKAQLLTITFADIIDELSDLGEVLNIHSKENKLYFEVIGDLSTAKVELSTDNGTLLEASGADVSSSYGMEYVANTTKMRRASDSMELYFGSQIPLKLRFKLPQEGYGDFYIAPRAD

[7] = target: T6, MsePCNA2 (Metallosphaera sedula, UniProt A4YHP5 1-244); experiment: SPR; 40 nM MsePCNA1
T6 chain: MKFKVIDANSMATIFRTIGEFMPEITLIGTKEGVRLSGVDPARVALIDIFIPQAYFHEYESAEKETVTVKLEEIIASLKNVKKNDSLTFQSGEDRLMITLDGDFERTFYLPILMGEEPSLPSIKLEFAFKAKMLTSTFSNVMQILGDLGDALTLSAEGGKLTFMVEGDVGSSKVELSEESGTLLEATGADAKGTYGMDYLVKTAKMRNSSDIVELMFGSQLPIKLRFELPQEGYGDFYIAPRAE

[8] = target: T6, MsePCNA2; experiment: SPR; 2.5 nM MsePCNA1
[9] = target: T5, SsoPCNA2; experiment: SPR; 2.5 nM MsePCNA1
[10] = target: T6, MsePCNA2; experiment: SPR; 1.25 nM MsePCNA1
[11] = target: T6, MsePCNA2; experiment: SPR; 20 nM MsePCNA1
[12] = target: T5, SsoPCNA2; experiment: SPR; 20 nM MsePCNA1
[13] = target: T5, SsoPCNA2; experiment: SPR; Biacore; about 350 RU of MsePCNA2 or SsoPCNA2 immobilised on Sensor Chip CM5; MsePCNA1 or SsoPCNA1 injected (2.5, 5, 10, 20, 40 nM), kinetic fit; 10 mM HEPES-HCl pH 7.4, 150 mM NaCl
[14] = target: T5, SsoPCNA2; experiment: SPR; 50 nM MsePCNA1
[15] = target: T6, MsePCNA2; experiment: SPR; 40 nM MsePCNA1
[16] = target: T5, SsoPCNA2; experiment: SPR; 40 nM MsePCNA1
[17] = target: T6, MsePCNA2; experiment: SPR; 20 nM MsePCNA1
[18] = target: T6, MsePCNA2; experiment: SPR; 1.25 nM MsePCNA1
[19] = target: T6, MsePCNA2; experiment: SPR; 5 nM MsePCNA1
[20] = target: T5, SsoPCNA2; experiment: SPR; 5 nM MsePCNA1
[21] = target: T6, MsePCNA2; experiment: SPR; 10 nM MsePCNA1
[22] = target: T6, MsePCNA2; experiment: SPR; 10 nM MsePCNA1
[23] = target: T5, SsoPCNA2; experiment: SPR; 10 nM MsePCNA1
[24] = target: T6, MsePCNA2; experiment: SPR; 2.5 nM MsePCNA1
[25] = target: T5, SsoPCNA2; experiment: SPR; 2.5 nM MsePCNA1

SsoPCNA3 (natural protein) was tested, and the Kd [1] was 200 nM, the Kd [2] was 170 nM and the Kd [3] was 190 nM.

B1: MsePCNA3 (natural protein, Metallosphaera sedula, UniProt A4YIY6 1-245, looked up)
chain: MRIAYANAMDFKTVIEALSKLIDEVTFTFTSSGLDVVAVDRAHISLIKLHFPKEAFEEFDVEDQFRFGFNTQYMLKVMASAKRKEKIEMESREESEIVIRMLGEPPREFTIRNIEVPIQELPELKLDFDVKAKITSGGFKKAVSEIATVSDSVEIDATEMEIKLRSKESTEIEVEFSKEMGGLQEIEVKKPSVSSYPSDYLEDVLVLTRLSGFLNLLFSEQKPLQLEFNMDNGGSVVYLLAPNVG
notes: MsePCNA3 (Msed_2250), PCNA homologue of Metallosphaera sedula; 'His6-tag-removed' is said for the pull-down only; also called Msed_2250; M. sedula PCNA homologue 3
Molecule B1 has a Kd ([2]; both partners purified) of 380 nM and a Kd ([3]; both partners purified) of 43 nM.

B2: MsePCNA2 (natural protein, Metallosphaera sedula, UniProt A4YHP5 1-244, looked up)
chain: MKFKVIDANSMATIFRTIGEFMPEITLIGTKEGVRLSGVDPARVALIDIFIPQAYFHEYESAEKETVTVKLEEIIASLKNVKKNDSLTFQSGEDRLMITLDGDFERTFYLPILMGEEPSLPSIKLEFAFKAKMLTSTFSNVMQILGDLGDALTLSAEGGKLTFMVEGDVGSSKVELSEESGTLLEATGADAKGTYGMDYLVKTAKMRNSSDIVELMFGSQLPIKLRFELPQEGYGDFYIAPRAE
notes: MsePCNA2 (Msed_1792), PCNA homologue of Metallosphaera sedula; 'His6-tag-removed' is said for the pull-down only; also called Msed_1792; M. sedula PCNA homologue 2
B2 was tested, and the Kd [4] was 1.8 nM, the koff [4] was 0.00044 s⁻¹ and the kon [4] was 270000 M⁻¹ s⁻¹. For the same molecule, the Kd [5] was 0.33 nM, the koff [5] was 8.9e-05 s⁻¹ and the kon [5] was 280000 M⁻¹ s⁻¹.

B3: MsePCNA1 (natural protein)
chain: MFRAIYGSSRDFYYIVSSISKISDELTLNFTEEGIGSKYLTDDKVMMGVVEIGKDALEEYSIEKPISVKLNLGELKKILSKMKGRSSVEITETNEGIRISMKDEKTGTRSSLSIKAEKGEPQILKEPSVAHSVTMGIGGDILSILVDESMQVGEEVEIKAEDDHVSFEVEEAGKKYSAVLKNGKPLTKLEIEKQGSSRYSLAILEKVSSALSFSKEIEIGFGAGIPMKLTAPLEKGAGIRFWVAPRL
In the case of B3, the Kd [6] is reported as 6.37 nM, the koff [7] is reported as 4.29e-05 s⁻¹ and the koff [8] is reported as 0.000121 s⁻¹. It also gave a koff [9] of 0.00134 s⁻¹, a koff [10] of 0.000128 s⁻¹ and a Kd [11] of 0.215 nM. It also gave a Kd [12] of 12.9 nM, a Kd [13] of 1.6 nM and a koff [13] of 0.0012 s⁻¹. It also gave a kon [13] of 130000 M⁻¹ s⁻¹, a Kd [14] of 27.5 nM and a Kd [15] of 0.253 nM. The Kd [16] was 36 nM, the koff [17] was 5.79e-05 s⁻¹ and the Kd [18] was 0.531 nM. It also gave a koff [19] of 0.00011 s⁻¹, a koff [20] of 0.00132 s⁻¹ and a koff [21] of 7.99e-05 s⁻¹. It also gave a Kd [22] of 0.249 nM, a Kd [23] of 7.02 nM and a Kd [24] of 0.396 nM. It also gave a Kd [25] of 6.81 nM.
